Laboratory results as given in US20090291890A1 (published 2009).
Positions count from the first letter of the chain named. In names and notes the source's numbering stands.

Biological target: Factor X (FX) (Homo sapiens (Human)) (UniProt P00742)
Sequence (P00742 41-488 limits assumed): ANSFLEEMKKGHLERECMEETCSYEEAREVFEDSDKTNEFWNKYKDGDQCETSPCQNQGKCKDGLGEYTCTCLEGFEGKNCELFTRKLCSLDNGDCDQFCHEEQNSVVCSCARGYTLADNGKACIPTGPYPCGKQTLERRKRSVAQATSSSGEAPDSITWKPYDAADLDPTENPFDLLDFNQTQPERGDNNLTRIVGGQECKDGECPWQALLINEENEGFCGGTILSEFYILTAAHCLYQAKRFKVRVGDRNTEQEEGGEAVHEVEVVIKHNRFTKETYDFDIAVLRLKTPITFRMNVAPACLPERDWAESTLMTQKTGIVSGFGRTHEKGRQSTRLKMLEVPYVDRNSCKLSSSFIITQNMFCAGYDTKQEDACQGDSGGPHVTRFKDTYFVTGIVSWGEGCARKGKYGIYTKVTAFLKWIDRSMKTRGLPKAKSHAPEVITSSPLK

B1: FVIIa variant P406ins… (enzyme)
chain: ANAFLEELRPGSLERECKEEQCSFEEAREIFKDAERTKLFWISYSDGDQCASSPCQNGGSCKDQLQSYICFCLPAFEGRNCETHKDDQLICVNENGGCEQYCSDHTGTKRSCRCHEGYSLLADGVSCTPTVEYPCGKIPILEKRNASKPQGRIVGGKVCPKGECPWQVLLLVNGAQLCGGTLINTIWVVSAAHCFDKIKNWRNLIAVLGEHDLSEHDGDEQSRRVAQVIIPSTYVPGTTNHDIALLRLHQPVVLTDHVVPLCLPERTFSERTLAFVRFSLVSGWGQLLDRGATALELMVLNVPRLMTQDCLQQSRKVGDSPNITEYMFCAGYSDGSKDSCKGDSGGPHATHYRGTWYLTGIVSWGQGCATVGHFGVYTRVSQYIEWLQKLMRSEPRPGVLLRAPFPGGGSCSFGRGDIRNVC
  kcat/KM, TF-Dependent Indirect Assay: 7.47e+07 M⁻¹ s⁻¹

B2: FVIIa variant P406ins… (enzyme)
chain: ANAFLEELRPGSLERECKEEQCSFEEAREIFKDAERTKLFWISYSDGDQCASSPCQNGGSCKDQLQSYICFCLPAFEGRNCETHKDDQLICVNENGGCEQYCSDHTGTKRSCRCHEGYSLLADGVSCTPTVEYPCGKIPILEKRNASKPQGRIVGGKVCPKGECPWQVLLLVNGAQLCGGTLINTIWVVSAAHCFDKIKNWRNLIAVLGEHDLSEHDGDEQSRRVAQVIIPSTYVPGTTNHDIALLRLHQPVVLTDHVVPLCLPERTFSERTLAFVRFSLVSGWGQLLDRGATALELMVLNVPRLMTQDCLQQSRKVGDSPNITEYMFCAGYSDGSKDSCKGDSGGPHATHYRGTWYLTGIVSWGQGCATVGHFGVYTRVSQYIEWLQKLMRSEPRPGVLLRAPFPCSFGRGDIRNVC
  kcat/KM, TF-Dependent Indirect Assay: 6.16e+07 M⁻¹ s⁻¹

B3: FVIIa variant E394N/P395A/R396S (enzyme)
chain: ANAFLEELRPGSLERECKEEQCSFEEAREIFKDAERTKLFWISYSDGDQCASSPCQNGGSCKDQLQSYICFCLPAFEGRNCETHKDDQLICVNENGGCEQYCSDHTGTKRSCRCHEGYSLLADGVSCTPTVEYPCGKIPILEKRNASKPQGRIVGGKVCPKGECPWQVLLLVNGAQLCGGTLINTIWVVSAAHCFDKIKNWRNLIAVLGEHDLSEHDGDEQSRRVAQVIIPSTYVPGTTNHDIALLRLHQPVVLTDHVVPLCLPERTFSERTLAFVRFSLVSGWGQLLDRGATALELMVLNVPRLMTQDCLQQSRKVGDSPNITEYMFCAGYSDGSKDSCKGDSGGPHATHYRGTWYLTGIVSWGQGCATVGHFGVYTRVSQYIEWLQKLMRSNASPGVLLRAPFP
  kcat/KM, TF-Dependent Indirect Assay: 5.32e+07 M⁻¹ s⁻¹

B4: FVIIa variant Q286R/S222A/H257A (enzyme)
chain: B3 chain with S222A, H257A, Q286R, N394E, A395P, S396R
  kcat/KM, TF-Dependent Indirect Assay: 9.51e+07 M⁻¹ s⁻¹

B5: FVIIa variant V158D/L287T/M298K (enzyme)
chain: B3 chain with V158D, L287T, M298K, N394E, A395P, S396R
  kcat/KM, TF-Dependent Indirect Assay: 4.48e+06 M⁻¹ s⁻¹

B6: FVIIa variant Q286R/M298Q/K341Q (enzyme)
chain: B3 chain with Q286R, M298Q, K341Q, N394E, A395P, S396R
  kcat/KM, TF-Dependent Indirect Assay: 3.93e+07 M⁻¹ s⁻¹

B7: FVIIa variant T239H (enzyme)
chain: B3 chain with T239H, N394E, A395P, S396R
  kcat/KM, TF-Dependent Indirect Assay: 9.9e+06 M⁻¹ s⁻¹

B8: FVIIa variant R202S (enzyme)
chain: B3 chain with R202S, N394E, A395P, S396R
  kcat/KM, TF-Dependent Indirect Assay: 2.57e+07 M⁻¹ s⁻¹

B9: FVIIa variant G318N (enzyme)
chain: B3 chain with G318N, N394E, A395P, S396R
  kcat/KM, TF-Dependent Indirect Assay: 5.5e+07 M⁻¹ s⁻¹

B10: FVIIa variant Q286R/M298Q/K199E (enzyme)
chain: B3 chain with K199E, Q286R, M298Q, N394E, A395P, S396R
  kcat/KM, TF-Dependent Indirect Assay: 7.74e+07 M⁻¹ s⁻¹

B11: FVIIa variant T130N/E132S (enzyme)
chain: B3 chain with T130N, E132S, N394E, A395P, S396R
  kcat/KM, TF-Dependent Indirect Assay: 6.35e+07 M⁻¹ s⁻¹

B12: FVIIa variant S222A/H257A/M298Q (enzyme)
chain: B3 chain with S222A, H257A, M298Q, N394E, A395P, S396R
  kcat/KM, TF-Dependent Indirect Assay: 7.75e+07 M⁻¹ s⁻¹

B13: FVIIa variant Q286R/H257A (enzyme)
chain: B3 chain with H257A, Q286R, N394E, A395P, S396R
  kcat/KM, TF-Dependent Indirect Assay: 1.27e+08 M⁻¹ s⁻¹

B14: FVIIa variant A122N/G124S (enzyme)
chain: B3 chain with A122N, G124S, N394E, A395P, S396R
  kcat/KM, TF-Dependent Indirect Assay: 5.27e+07 M⁻¹ s⁻¹

B15: FVIIa variant T239Q (enzyme)
chain: B3 chain with T239Q, N394E, A395P, S396R
  kcat/KM, TF-Dependent Indirect Assay: 1.74e+07 M⁻¹ s⁻¹

B16: FVIIa variant T239S (enzyme)
chain: B3 chain with T239S, N394E, A395P, S396R
  kcat/KM, TF-Dependent Indirect Assay: 1.74e+07 M⁻¹ s⁻¹

B17: FVIIa variant Q286R/S222A (enzyme)
chain: B3 chain with S222A, Q286R, N394E, A395P, S396R
  kcat/KM, TF-Dependent Indirect Assay: 1.42e+08 M⁻¹ s⁻¹

B18: FVIIa variant T239L (enzyme)
chain: B3 chain with T239L, N394E, A395P, S396R
  kcat/KM, TF-Dependent Indirect Assay: 3.77e+07 M⁻¹ s⁻¹

B19: FVIIa variant A292N/A294S (enzyme)
chain: B3 chain with A292N, A294S, N394E, A395P, S396R
  kcat/KM, TF-Dependent Indirect Assay: 0 M⁻¹ s⁻¹

B20: FVIIa variant A175S (enzyme)
chain: B3 chain with A175S, N394E, A395P, S396R
  kcat/KM, TF-Dependent Indirect Assay: 3.32e+07 M⁻¹ s⁻¹

B21: FVIIa variant S222A/H257A/Q286R/M298Q (enzyme)
chain: B3 chain with S222A, H257A, Q286R, M298Q, N394E, A395P, S396R
  kcat/KM, TF-Dependent Indirect Assay: 2e+08 M⁻¹ s⁻¹

B22: FVIIa variant T239V (enzyme)
chain: B3 chain with T239V, N394E, A395P, S396R
  kcat/KM, TF-Dependent Indirect Assay: 9.57e+07 M⁻¹ s⁻¹

B23: FVIIa variant A122N/G124S/E394N/P395A/R396S (enzyme)
chain: B3 chain with A122N, G124S
  kcat/KM, TF-Dependent Indirect Assay: 4.88e+07 M⁻¹ s⁻¹

B24: FVIIa variant V158T/L287T/M298K (enzyme)
chain: B3 chain with V158T, L287T, M298K, N394E, A395P, S396R
  kcat/KM, TF-Dependent Indirect Assay: 4.5e+06 M⁻¹ s⁻¹

B25: FVIIa variant T239I (enzyme)
chain: B3 chain with T239I, N394E, A395P, S396R
  kcat/KM, TF-Dependent Indirect Assay: 3.5e+07 M⁻¹ s⁻¹

B26: FVIIa variant S103S111delins… (enzyme)
chain: ANAFLEELRPGSLERECKEEQCSFEEAREIFKDAERTKLFWISYSDGDQCASSPCQNGGSCKDQLQSYICFCLPAFEGRNCETHKDDQLICVNENGGCEQYCSFGRGDIRNVCRCHEGYSLLADGVSCTPTVEYPCGKIPILEKRNASKPQGRIVGGKVCPKGECPWQVLLLVNGAQLCGGTLINTIWVVSAAHCFDKIKNWRNLIAVLGEHDLSEHDGDEQSRRVAQVIIPSTYVPGTTNHDIALLRLHQPVVLTDHVVPLCLPERTFSERTLAFVRFSLVSGWGQLLDRGATALELMVLNVPRLMTQDCLQQSRKVGDSPNITEYMFCAGYSDGSKDSCKGDSGGPHATHYRGTWYLTGIVSWGQGCATVGHFGVYTRVSQYIEWLQKLMRSEPRPGVLLRAPFP
  kcat/KM, TF-Dependent Indirect Assay: 4.83e+07 M⁻¹ s⁻¹

B27: FVIIa variant S222A/Gla Swap FIX (enzyme)
chain: YNSGKLEEFVQGNLERECMEEKCSFEEAREVFENTERTTEFWKQYSDGDQCASSPCQNGGSCKDQLQSYICFCLPAFEGRNCETHKDDQLICVNENGGCEQYCSDHTGTKRSCRCHEGYSLLADGVSCTPTVEYPCGKIPILEKRNASKPQGRIVGGKVCPKGECPWQVLLLVNGAQLCGGTLINTIWVVSAAHCFDKIKNWRNLIAVLGEHDLSEHDGDEQARRVAQVIIPSTYVPGTTNHDIALLRLHQPVVLTDHVVPLCLPERTFSERTLAFVRFSLVSGWGQLLDRGATALELMVLNVPRLMTQDCLQQSRKVGDSPNITEYMFCAGYSDGSKDSCKGDSGGPHATHYRGTWYLTGIVSWGQGCATVGHFGVYTRVSQYIEWLQKLMRSEPRPGVLLRAPFP
  kcat/KM, TF-Dependent Indirect Assay: 6.55e+07 M⁻¹ s⁻¹

B28: FVIIa variant Q286R/H257A/Gla Swap FIX (enzyme)
chain: B27 chain with A223S, H258A, Q287R
  kcat/KM, TF-Dependent Indirect Assay: 8.09e+07 M⁻¹ s⁻¹

B29: FVIIa variant Q286R/S222A/H257A/Gla Swap FIX (enzyme)
chain: B27 chain with H258A, Q287R
  kcat/KM, TF-Dependent Indirect Assay: 7.75e+07 M⁻¹ s⁻¹

B30: FVIIa variant S222A/H257A/Gla Swap FIX (enzyme)
chain: B27 chain with H258A
  kcat/KM, TF-Dependent Indirect Assay: 5.77e+07 M⁻¹ s⁻¹

B31: FVIIa variant Q286R/S222A/Gla Swap FIX (enzyme)
chain: B27 chain with Q287R
  kcat/KM, TF-Dependent Indirect Assay: 1.61e+08 M⁻¹ s⁻¹

B32: FVIIa variant H257A/Gla Swap FIX (enzyme)
chain: B27 chain with A223S, H258A
  kcat/KM, TF-Dependent Indirect Assay: 6.45e+07 M⁻¹ s⁻¹

B33: FVIIa variant Q286R/Gla Swap FIX (enzyme)
chain: B27 chain with A223S, Q287R
  kcat/KM, TF-Dependent Indirect Assay: 1.11e+08 M⁻¹ s⁻¹
